Measurements from patent publication US20250043302A1, “MUTATED HYDROXYPHENYLPYRUVATE DIOXYGENASE POLYPEPTIDE, AND CODING GENE AND USE THEREOF” (BEIJING DABEINONG BIOTECHNOLOGY CO., LTD., priority 2021, published 2025).

B1: OsHPPDm-F383W-02: nucleotide sequence encoding Oryza sativa HPPD with F383W; vector DBN11756 (nucleic acid)
DNA: ATGCCACCCACGCCAACACCAACGGCCACCACTGGTGCCGTCTCGGCCGCGGCAGCGGCCGGTGAGAATGCTGGTTTCAGGCTAGTCGGCCACCGCCGCTTCGTGAGGGCAAATCCAAGATCTGATCGGTTCCAAGCACTTGCTTTCCACCATGTTGAGCTGTGGTGCGCTGACGCCGCTTCAGCTGCCGGGAGGTTTGCTTTTGCTTTAGGGGCGCCGCTCGCCGCAAGGAGTGATCTTTCCACCGGAAATTCTGCTCATGCTTCTCTTCTACTTAGATCAGCAAGTGTTGCATTTCTGTTCACTGCACCTTATGGCGGAGACCATGGTGTCGGGGCCGATGCTGCAACAACAGCTAGCATACCATCATTTTCTCCCGGCGCCGCAAGAAGATTTGCAGCCGATCATGGCCTGGCAGTTCATGCTGTGGCATTGAGGGTCGCCGACGCGGCTGATGCGTTCCGCGCCAGCGTGGCTGCTGGAGCTAGGCCGGCGTTCCAGCCTGCTGACCTTGGGGGTGGATTTGGATTGGCGGAGGTTGAATTATATGGTGATGTTGTGCTCCGTTTTGTTTCCCATCCAGATGGTGCTGATGCTCCATTTCTACCTGGATTTGAAGGGGTGTCAAACCCCGGCGCGGTGGATTATGGACTGCGTCGATTTGATCACGTGGTAGGTAATGTTCCTGAGTTGGCTCCCGTGGCGGCCTACATTTCAGGCTTTACTGGCTTCCATGAATTTGCCGAGTTCACCGCGGAAGATGTGGGAACTGCTGAAAGTGGATTGAACTCTGTTGTCCTGGCGAACAATGCAGAGACTGTATTGCTCCCCTTGAATGAGCCTGTGCACGGCACCAAACGGCGATCTCAAATTCAGACATACCTCGACCACCACGGGGGCCCTGGTGTTCAGCATATTGCTCTAGCCAGCGACGACGTACTGGGAACACTGAGGGAGATGAGAGCCCGTTCCGCCATGGGTGGCTTTGAGTTTCTGGCCCCTCCGCCGCCAAACTACTACGACGGCGTCAGACGGCGGGCGGGTGACGTCTTGAGTGAGGAGCAGATCAATGAATGTCAAGAACTTGGGGTTCTTGTTGATAGAGATGATCAAGGAGTGCTCCTCCAAATATTCACAAAACCTGTTGGCGACCGCCCGACCTTCTGGCTTGAAATGATCCAAAGGATCGGCTGCATGGAGAAGGATGAATCGGGCCAGGAGTACCAGAAGGGTGGGTGTGGTGGCTTTGGGAAGGGCAACTTCAGCGAGCTGTTCAAGTCAATTGAAGAATATGAAAAATCATTGGAGGCAAAGCAAGCTCCGACGGTGCAGGGAAGCTGA
modifications: OsHPPDm-F383W-02 Nucleotide Sequence
notes: vector DBN11756
B2: SbHPPD-02: nucleotide sequence encoding wild-type Sorghum bicolor HPPD; vector DBN11758 (nucleic acid)
DNA: ATGCCGCCCACTCCAACAACTGCTGCTGCGACGGGAGCAGCTGTCGCCGCTGCTTCTGCTGAGCAGGCTGCCTTCAGGCTCGTCGGGCACAGAAATTTTGTTCGTGTAAATCCAAGGAGTGATAGGTTCCACACCTTGGCTTTTCACCACGTGGAGTTGTGGTGTGCTGATGCAGCCTCGGCAGCGGGGCGCTTCTCGTTTGGTCTCGGTGCTCCGCTCGCCGCAAGATCTGATCTTAGCACTGGAAACACAGCGCATGCCTCCCTGCTCCTGCGCTCTGGCGCGCTGGCGTTCCTCTTCACGGCGCCATATGCTCACGGCGCCGACGCCGCCACCGCGTCATTGCCGTCTTTTAGTGCAGCCGAAGCAAGAAGATTTGCAGCAGACCACGGCCTCGCCGTAAGGGCCGTGGCCTTACGTGTCGCCGATGCCGAAGATGCTTTCCGCGCCTCTGTAGCAGCTGGAGCAAGGCCAGCATTTGAACCTGTTGAATTGGGGTTAGGATTCCGTCTTGCAGAAGTTGAGCTTTATGGCGACGTTGTTTTGAGATACGTTTCATATCCTGATGACGCTGACGCTAGCTTCTTGCCTGGTTTTGTGGGGGTGACATCACCTGGGGCAGCAGATTATGGTCTCAGGCGGTTTGATCATATTGTTGGAAACGTTCCTGAACTCGCGCCGGCGGCAGCCTACTTCGCCGGTTTCACTGGGTTTCATGAATTTGCTGAATTCACAGCCGAGGATGTCGGCACCACCGAGAGTGGACTGAACTCCATGGTGCTGGCCAACAATGCAGAGAATGTCCTTCTTCCCTTGAATGAACCAGTTCATGGAACAAAAAGGCGTTCCCAAATACAAACATACCTCGACCATCATGGTGGACCAGGCGTTCAGCATATGGCTCTCGCTAGTGACGATGTTCTACGAACCCTGCGAGAGATGCAGGCGCGGTCTGCAATGGGAGGATTTGAGTTCATGGCACCTCCTGCCCCTGAATATTATGATGGTGTTCGGAGAAGGGCAGGTGATGTGCTAACTGAAGCTCAAATCAAGGAGTGCCAGGAGCTTGGCGTGCTGGTCGATCGGGATGATCAAGGTGTGCTTCTGCAGATTTTTACTAAACCAGTGGGTGACCGCCCCACGCTGTTCCTAGAGATCATCCAGAGAATAGGGTGCATGGAGAAGGACGAAAAAGGACAAGAGTACCAGAAGGGAGGTTGTGGCGGCTTTGGAAAAGGGAACTTCTCCCAATTATTCAAGTCAATTGAAGACTATGAAAAGAGTTTGGAGGCTAAGCAAGCTGCAGCCGCCCAGGGCAGCTGA
modifications: SbHPPD-02 Nucleotide Sequence
notes: vector DBN11758

Key:
Assay type in all cases: in vivo
[1] = system: Arabidopsis thaliana T1 plants; assay: Mesotrione tolerance of transgenic Arabidopsis thaliana T1 plants (spray, bleached leaf area grade, damage score); set-up: Scores: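 damage score 0-100 computed as Σ(N×S)/(T×M)×100 over grades 0-3 with higher meaning more damage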; settings: Arabidopsis thaliana T1 plants; for Grade 0 (classification and statistics of the grade of pesticide damage; number of plants) / Grade 1 (classification and statistics of the grade of pesticide damage; number of plants) / Grade 2 (classification and statistics of the grade of pesticide damage; number of plants) / Grade 3 (classification and statistics of the grade of pesticide damage; number of plants): 16 plants
How it was run: (§1)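 Damage graded 0–3 from the proportion of bleached leaf area 7 days after spraying. Plants were glufosinate-selected T1 lines, 18 days after sowing, plus vector and wild-type controls. Rates: mesotrione 52.5–420, isoxaflutole 35–280, topramezone 25–200 g ai/ha, with water (0×).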

[2] = system: Arabidopsis thaliana T1 plants; assay: Isoxaflutole tolerance of transgenic Arabidopsis thaliana T1 plants (spray, bleached leaf area grade, damage score); set-up: Scores (pesticide damage): scale not given here; settings: spray, Arabidopsis thaliana T1 plants; for Classification and statistics of the grade of pesticide damage: Grade 0 (number of plants) / Classification and statistics of the grade of pesticide damage: Grade 1 (number of plants) / Classification and statistics of the grade of pesticide damage: Grade 2 (number of plants) / Classification and statistics of the grade of pesticide damage: Grade 3 (number of plants): 16 plants
How it was run: as §1

[3] = system: Arabidopsis thaliana T1 plants; assay: Topramezone tolerance of transgenic Arabidopsis thaliana T1 plants (spray, bleached leaf area grade, damage score); settings: 7 DAT, Table 4; for Classification and statistics of the grade of pesticide damage: Grade 0 / Classification and statistics of the grade of pesticide damage: Grade 1 / Classification and statistics of the grade of pesticide damage: Grade 2 / Classification and statistics of the grade of pesticide damage: Grade 3: number of plants; for Scores: pesticide damage score 0-100
How it was run: as §1

[4] = isoxaflutole 35 g ai/ha (0.5x field concentration)
[5] = isoxaflutole 70 g ai/ha (1x field concentration)

Row | Molecule | Resistance evaluation ([1]; mesotrione 52.5 g ai/ha) | Scores ([1]; mesotrione 52.5 g ai/ha) | Grade 0 (classification and statistics of the grade of pesticide damage; number of plants) ([1]; mesotrione 52.5 g ai/ha) | Grade 1 (classification and statistics of the grade of pesticide damage; number of plants) ([1]; mesotrione 52.5 g ai/ha) | Grade 2 (classification and statistics of the grade of pesticide damage; number of plants) ([1]; mesotrione 52.5 g ai/ha) | Grade 3 (classification and statistics of the grade of pesticide damage; number of plants) ([1]; mesotrione 52.5 g ai/ha) | Resistance evaluation ([1]; mesotrione 105 g ai/ha) | Scores ([1]; mesotrione 105 g ai/ha) | Grade 0 (classification and statistics of the grade of pesticide damage; number of plants) ([1]; mesotrione 105 g ai/ha) | Grade 1 (classification and statistics of the grade of pesticide damage; number of plants) ([1]; mesotrione 105 g ai/ha) | Grade 2 (classification and statistics of the grade of pesticide damage; number of plants) ([1]; mesotrione 105 g ai/ha) | Grade 3 (classification and statistics of the grade of pesticide damage; number of plants) ([1]; mesotrione 105 g ai/ha) | Resistance evaluation [2, 4] | Scores (pesticide damage) [2, 4] | Classification and statistics of the grade of pesticide damage: Grade 0 (number of plants) [2, 4] | Classification and statistics of the grade of pesticide damage: Grade 1 (number of plants) [2, 4] | Classification and statistics of the grade of pesticide damage: Grade 2 (number of plants) [2, 4] | Classification and statistics of the grade of pesticide damage: Grade 3 (number of plants) [2, 4] | Resistance evaluation [2, 5] | Scores (pesticide damage) [2, 5] | further results
1 | B1 | Non-resistant | 85 | 0 | 0 | 7 | 9 | Non-resistant | 100 | 0 | 0 | 0 | 16 | Non-resistant | 94 | 0 | 0 | 3 | 13 | Non-resistant | 100 | Classification and statistics of the grade of pesticide damage: Grade 0 (number of plants) [2, 5]: 0; Classification and statistics of the grade of pesticide damage: Grade 1 (number of plants) [2, 5]: 0; Classification and statistics of the grade of pesticide damage: Grade 2 (number of plants) [2, 5]: 0; Classification and statistics of the grade of pesticide damage: Grade 3 (number of plants) [2, 5]: 16; Classification and statistics of the grade of pesticide damage: Grade 0 ([3]; topramezone 25 g ai/ha (1×)): 0; Classification and statistics of the grade of pesticide damage: Grade 1 ([3]; topramezone 25 g ai/ha (1×)): 3; Classification and statistics of the grade of pesticide damage: Grade 2 ([3]; topramezone 25 g ai/ha (1×)): 9; Classification and statistics of the grade of pesticide damage: Grade 3 ([3]; topramezone 25 g ai/ha (1×)): 4; Classification and statistics of the grade of pesticide damage: Grade 0 ([3]; topramezone 100 g ai/ha (4×)): 0; Classification and statistics of the grade of pesticide damage: Grade 1 ([3]; topramezone 100 g ai/ha (4×)): 0; Classification and statistics of the grade of pesticide damage: Grade 2 ([3]; topramezone 100 g ai/ha (4×)): 0; Classification and statistics of the grade of pesticide damage: Grade 3 ([3]; topramezone 100 g ai/ha (4×)): 16; Scores ([3]; topramezone 25 g ai/ha (1×)): 69; Scores ([3]; topramezone 100 g ai/ha (4×)): 100; Resistance evaluation ([3]; topramezone 25 g ai/ha (1×)): non-resistant (non-resistant plants (scores 68-100)); Resistance evaluation ([3]; topramezone 100 g ai/ha (4×)): non-resistant (non-resistant plants (scores 68-100))
2 | B2 | Non-resistant | 100 | 0 | 0 | 0 | 16 | Non-resistant | 100 | 0 | 0 | 0 | 16 | Non-resistant | 100 | 0 | 0 | 0 | 16 | Non-resistant | 100 | Classification and statistics of the grade of pesticide damage: Grade 0 (number of plants) [2, 5]: 0; Classification and statistics of the grade of pesticide damage: Grade 1 (number of plants) [2, 5]: 0; Classification and statistics of the grade of pesticide damage: Grade 2 (number of plants) [2, 5]: 0; Classification and statistics of the grade of pesticide damage: Grade 3 (number of plants) [2, 5]: 16; Classification and statistics of the grade of pesticide damage: Grade 0 ([3]; topramezone 25 g ai/ha (1×)): 0; Classification and statistics of the grade of pesticide damage: Grade 1 ([3]; topramezone 25 g ai/ha (1×)): 0; Classification and statistics of the grade of pesticide damage: Grade 2 ([3]; topramezone 25 g ai/ha (1×)): 0; Classification and statistics of the grade of pesticide damage: Grade 3 ([3]; topramezone 25 g ai/ha (1×)): 16; Classification and statistics of the grade of pesticide damage: Grade 0 ([3]; topramezone 100 g ai/ha (4×)): 0; Classification and statistics of the grade of pesticide damage: Grade 1 ([3]; topramezone 100 g ai/ha (4×)): 0; Classification and statistics of the grade of pesticide damage: Grade 2 ([3]; topramezone 100 g ai/ha (4×)): 0; Classification and statistics of the grade of pesticide damage: Grade 3 ([3]; topramezone 100 g ai/ha (4×)): 16; Scores ([3]; topramezone 25 g ai/ha (1×)): 100; Scores ([3]; topramezone 100 g ai/ha (4×)): 100; Resistance evaluation ([3]; topramezone 25 g ai/ha (1×)): non-resistant (non-resistant plants (scores 68-100)); Resistance evaluation ([3]; topramezone 100 g ai/ha (4×)): non-resistant (non-resistant plants (scores 68-100))
